Experimental data taken from patent US20250388640A1 (SYNTHEKINE, published 2025).
Numbering of substitutions follows the chain as printed. Names and notes keep the numbering of the source. Values belong to the binder of their own block, whether it stands above or below them.

Tests used:
Test in all cases: cell-based or functional assay
[1] = target: T1, hIL-12 receptor signaling complex (hIL-12Rβ1 and hIL-12Rβ2) (human, UniProt P42701 24-662; Q99665 24-862)
[2] = target: T1, hIL-12 receptor signaling complex …; remark: listed apart in the source
[3] = target: T1, hIL-12 receptor signaling complex …; remark: listed apart in the source
[4] = target: T1, hIL-12 receptor signaling complex …; remark: listed apart in the source

T1 sequence (Q99665 24-862, chain 2 of 2, other chains not shown): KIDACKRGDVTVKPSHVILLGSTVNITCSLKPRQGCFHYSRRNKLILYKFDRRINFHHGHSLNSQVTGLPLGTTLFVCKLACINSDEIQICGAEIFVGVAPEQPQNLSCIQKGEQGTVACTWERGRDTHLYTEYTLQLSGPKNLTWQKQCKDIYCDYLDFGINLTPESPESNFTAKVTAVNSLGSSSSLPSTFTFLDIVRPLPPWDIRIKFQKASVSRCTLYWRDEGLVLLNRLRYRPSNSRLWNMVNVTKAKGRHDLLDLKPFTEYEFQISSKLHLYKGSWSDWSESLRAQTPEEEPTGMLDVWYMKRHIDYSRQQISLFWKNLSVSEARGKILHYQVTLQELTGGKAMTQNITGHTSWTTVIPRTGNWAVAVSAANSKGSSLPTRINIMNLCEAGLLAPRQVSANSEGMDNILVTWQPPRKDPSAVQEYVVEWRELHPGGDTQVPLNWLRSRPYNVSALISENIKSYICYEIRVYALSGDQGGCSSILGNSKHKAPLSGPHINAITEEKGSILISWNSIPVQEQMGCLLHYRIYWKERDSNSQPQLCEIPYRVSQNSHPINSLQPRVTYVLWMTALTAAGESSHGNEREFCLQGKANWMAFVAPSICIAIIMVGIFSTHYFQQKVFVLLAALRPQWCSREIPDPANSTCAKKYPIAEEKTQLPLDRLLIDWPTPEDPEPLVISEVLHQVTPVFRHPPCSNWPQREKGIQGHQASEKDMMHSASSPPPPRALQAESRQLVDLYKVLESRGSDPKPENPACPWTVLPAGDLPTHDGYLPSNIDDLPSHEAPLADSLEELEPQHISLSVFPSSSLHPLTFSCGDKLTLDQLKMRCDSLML

B2: human IL12 mutein, hIL-12p40 E81A, F82I with hIL-12p35-8X His (ligand)
chain 1: IWELKKDVYVVELDWYPDAPGEMVVLTCDTPEEDGITWTLDQSSEVLGSGKTLTIQVKAIGDAGQYTCHKGGEVLSHSLLLLHKKEDGIWSTDILKDQKEPKNKTFLRCEAKNYSGRFTCWWLTTISTDLTFSVKSSRGSSDPQGVTCGAATLSAERVRGDNKEYEYSVECQEDSACPAAEESLPIEVMVDAVHKLKYENYTSSFFIRDIIKPDPPKNLQLKPLKNSRQVEVSWEYPDTWSTPHSYFSLTFCVQVQGKSKREKKDRVFTDKTSATVICRKNASISVRAQDRYYSSSWSEWASVPCS
chain 2: RNLPVATPDPGMFPCLHHSQNLLRAVSNMLQKARQTLEFYPCTSEEIDHEDITKDKTSTVEACLPLELTKNESCLNSRETSFITNGSCLASRKTSFMMALCLSSIYEDLKMYQVEFKTMNAKLLMDPKRQIFLDQNMLAVIDELMQALNFNSETVPQKSSLEEPDFYKTKIKLCILLHAFRIRAVTIDRVMSYLNASGSHHHHHHHH
- pSTAT4 [gMFI] EC50, CD8+ T Cells [3]: 5.72 nM
- pSTAT4 [gMFI] EC50, CD56hi NK Cells [3]: 10.4 nM
- pSTAT4 [gMFI] Emax, CD8+ T Cells [3]: 106000 gMFI
- pSTAT4 [gMFI] Emax, CD56hi NK Cells [3]: 30500 gMFI
- pSTAT4 [%+] EC50, CD8+ T Cells [4]: 0.67 nM
- pSTAT4 [%+] EC50, CD56hi NK Cells [4]: 0.9 nM
- pSTAT4 [%+] Emax, CD8+ T Cells [4]: 79.2 %+
- pSTAT4 [%+] Emax, CD56hi NK Cells [4]: 86 %+

B3: human IL12 mutein, hIL-12p40 E81A, F82F with hIL-12p35-8X His (ligand)
chain 1: B2 chain 1 with I60F
chain 2: B2 chain 2
- pSTAT4 [gMFI] EC50, CD8+ T Cells [3]: 0.2 nM
- pSTAT4 [gMFI] EC50, CD56hi NK Cells [3]: 0.63 nM
- pSTAT4 [gMFI] Emax, CD8+ T Cells [3]: 107000 gMFI
- pSTAT4 [gMFI] Emax, CD56hi NK Cells [3]: 36600 gMFI
- pSTAT4 [%+] EC50, CD8+ T Cells [4]: 70 pM
- pSTAT4 [%+] EC50, CD56hi NK Cells [4]: 0.13 nM
- pSTAT4 [%+] Emax, CD8+ T Cells [4]: 83.3 %+
- pSTAT4 [%+] Emax, CD56hi NK Cells [4]: 93.5 %+

B5: human IL12 mutein, hIL-12p40 E81A, F82D with hIL-12p35-8X His (ligand)
chain 1: B2 chain 1 with I60D
chain 2: B2 chain 2
- pSTAT4 [gMFI] EC50, CD8+ T Cells [3]: 8.72 nM
- pSTAT4 [gMFI] EC50, CD56hi NK Cells [3]: 15.9 nM
- pSTAT4 [gMFI] Emax, CD8+ T Cells [3]: 84000 gMFI
- pSTAT4 [gMFI] Emax, CD56hi NK Cells [3]: 23300 gMFI
- pSTAT4 [%+] EC50, CD8+ T Cells [4]: 2.13 nM
- pSTAT4 [%+] EC50, CD56hi NK Cells [4]: 3.51 nM
- pSTAT4 [%+] Emax, CD8+ T Cells [4]: 76.6 %+
- pSTAT4 [%+] Emax, CD56hi NK Cells [4]: 84.1 %+

B8: human IL12 mutein, hIL-12p40 E81A, F82H with hIL-12p35-8X His (ligand)
chain 1: B2 chain 1 with I60H
chain 2: B2 chain 2
- pSTAT4 [gMFI] EC50, CD8+ T Cells [3]: 4.04 nM
- pSTAT4 [gMFI] EC50, CD56hi NK Cells [3]: 8.57 nM
- pSTAT4 [gMFI] Emax, CD8+ T Cells [3]: 108000 gMFI
- pSTAT4 [gMFI] Emax, CD56hi NK Cells [3]: 33500 gMFI
- pSTAT4 [%+] EC50, CD8+ T Cells [4]: 0.55 nM
- pSTAT4 [%+] EC50, CD56hi NK Cells [4]: 0.97 nM
- pSTAT4 [%+] Emax, CD8+ T Cells [4]: 79.6 %+
- pSTAT4 [%+] Emax, CD56hi NK Cells [4]: 89.7 %+

Results, then the binder that gave them:

- IFNy [%+] EC50, CD8+ T Cells [1]: 0.101 nM
- IFNy [%+] EC50, CD56hi NK Cells [1]: 0.014 nM
- IFNy [%+] Emax, CD8+ T Cells [1]: 69 %+
- IFNy [%+] Emax, CD56hi NK Cells [1]: 94.9 %+
- IFNy [gMFI] EC50, CD8+ T Cells [2]: 0.21 nM
- IFNy [gMFI] EC50, CD56hi NK Cells [2]: 0.73 nM
- IFNy [gMFI] Emax, CD8+ T Cells [2]: 11300 gMFI
- IFNy [gMFI] Emax, CD56hi NK Cells [2]: 206000 gMFI
B1: human IL12 mutein, hIL-12p40 E81S, F82A with hIL-12p35-8X His (ligand)
chain 1: B2 chain 1 with A59S, I60A
chain 2: B2 chain 2

- IFNy [%+] EC50, CD8+ T Cells [1]: 0.195 nM
- IFNy [%+] EC50, CD56hi NK Cells [1]: 0.022 nM
- IFNy [%+] Emax, CD8+ T Cells [1]: 68.2 %+
- IFNy [%+] Emax, CD56hi NK Cells [1]: 92.8 %+
- IFNy [gMFI] EC50, CD8+ T Cells [2]: 0.43 nM
- IFNy [gMFI] EC50, CD56hi NK Cells [2]: 0.6 nM
- IFNy [gMFI] Emax, CD8+ T Cells [2]: 11400 gMFI
- IFNy [gMFI] Emax, CD56hi NK Cells [2]: 165000 gMFI
B4: human IL12 mutein, hIL-12p40 E81N, F82A with hIL-12p35-8X His (ligand)
chain 1: B2 chain 1 with A59N, I60A
chain 2: B2 chain 2

- pSTAT4 [gMFI] EC50, CD8+ T Cells [3]: 2.87 nM
- pSTAT4 [gMFI] EC50, CD56hi NK Cells [3]: 8.04 nM
- pSTAT4 [gMFI] Emax, CD8+ T Cells [3]: 94000 gMFI
- pSTAT4 [gMFI] Emax, CD56hi NK Cells [3]: 29600 gMFI
- pSTAT4 [%+] EC50, CD8+ T Cells [4]: 0.71 nM
- pSTAT4 [%+] EC50, CD56hi NK Cells [4]: 1.15 nM
- pSTAT4 [%+] Emax, CD8+ T Cells [4]: 79.7 %+
- pSTAT4 [%+] Emax, CD56hi NK Cells [4]: 87.6 %+
B6: human IL12 mutein, hIL-12p40 E81A, F82P with hIL-12p35-8X His (ligand)
chain 1: B2 chain 1 with I60P
chain 2: B2 chain 2

- pSTAT4 [gMFI] EC50, CD8+ T Cells [3]: 5.54 nM
- pSTAT4 [gMFI] EC50, CD56hi NK Cells [3]: 7.62 nM
- pSTAT4 [gMFI] Emax, CD8+ T Cells [3]: 101000 gMFI
- pSTAT4 [gMFI] Emax, CD56hi NK Cells [3]: 28000 gMFI
- pSTAT4 [%+] EC50, CD8+ T Cells [4]: 0.98 nM
- pSTAT4 [%+] EC50, CD56hi NK Cells [4]: 1.36 nM
- pSTAT4 [%+] Emax, CD8+ T Cells [4]: 80.2 %+
- pSTAT4 [%+] Emax, CD56hi NK Cells [4]: 86.9 %+
B7: human IL12 mutein, hIL-12p40 E81A, F82R with hIL-12p35-8X His (ligand)
chain 1: B2 chain 1 with I60R
chain 2: B2 chain 2

- pSTAT4 [gMFI] EC50, CD8+ T Cells [3]: 2.64 nM
- pSTAT4 [gMFI] EC50, CD56hi NK Cells [3]: 4.26 nM
- pSTAT4 [gMFI] Emax, CD8+ T Cells [3]: 109000 gMFI
- pSTAT4 [gMFI] Emax, CD56hi NK Cells [3]: 32200 gMFI
- pSTAT4 [%+] EC50, CD8+ T Cells [4]: 0.52 nM
- pSTAT4 [%+] EC50, CD56hi NK Cells [4]: 0.74 nM
- pSTAT4 [%+] Emax, CD8+ T Cells [4]: 82.2 %+
- pSTAT4 [%+] Emax, CD56hi NK Cells [4]: 88.1 %+
B9: human IL12 mutein, hIL-12p40 E81A, F82M with hIL-12p35-8X His (ligand)
chain 1: B2 chain 1 with I60M
chain 2: B2 chain 2
